# Assay results: the DeepSol protein solubility set
# Assay: soluble on expression in E. coli; label from the status in PepcDB or PDB records
row,Sequence,soluble on expression in E. coli
1,MAHHHHHHMLRFTVPALVVFQNAYAPRVLNRMTPDRMELTMLILKERKKKVRYLGSNFQGFNDRVHLFNAQGGVRRGTRYIIETHHNRIQFKHRSRNNSMVDVRAVKMAGSQYDSIGNYTRMTWDNSLCTTNLLSDPNFKRHFKNMPKEETIGVLEEWGVRYILLDEIRKPSLMDCKYHKHHLYADKFWWSPSPETNHMRGDAEFKWKGNELIAYGDYNAHMQHPANFVTSSSSGSSGSGAATSKSAAAAAGSKKGASARPWFRRTVVVRKSQASDTKPLSTASKIAAAGTSK,soluble
2,MAKGTKYVSKVPDEHGFIEWSTEENLIWQELFTRQIACIKDKACDEYHEGLAKLNLPTDRIPQLDEVSKVLKVSTGWECYPVPALIGFGEFFRLLSEKKFPVATFIRSREEMDYLQEPDIFHEIFGHCPLLTNSSFANYTEAYGKMGLNATKEQRVFLARLYWFTIEFGLLDTPKGLRIYGGGVLSSPGETDYAMNNTDVDRKPFDILDVLRTPYRIDIMQPIYYMLTKVSDLDEIRKFEVDDIMELVAQAEALGLHEAKFPVKKASLEHHHHHH,soluble
3,YEKYRWSISRSGYLIILGRDASQNESIVKKYLRDKDIFLHADIIGAPATIIITQDNKTISEEDIYDAAVMAASYSKAWKVGLASVDIFWVLGNQVSKSPPSGEYLNK,not soluble
4,METLHTQEDIIKMLDSLLRPAEPFWNEFYANREKDVPFFENVPDENLVSYIQKKRVSKGKVLELGCGPGRNAIYLANEGFDVTAVDVSIEGINWAKERALAKGVEIEFICDSIFNLEVQNEFDFVYDSGCLHHIPPHRRVNYVDLIKNALKSGGYFGLTCFAAGDLDERNGSEITDWDVYRGWSLQGGLAYSEEKLREIFKGFEVIEIRKMEQIEQPNTMFGESFLWTALFKKNLEHHHHHH,not soluble
5,MGSDKIHHHHHHVSTAVSTPPTRLQCPICGSERFGDFRSRVNVRCSGCGSFERSRLLWLVLSQLELEATGRPFFHVAPEIGIAKLLHARLGERYRAFDFSPDIYAKAKIPVGRLDLCSDLSGMATGSVGGFCHVHVLEHVRCNAALVLQQINRVLAPGGYHVFGVPFWSRQYREDLSSELTDADRLSRFGHEDHVRSFGDQDFTVMFGGAFEGMEAIPLSRLIEVEAAARCNIPPRALTLNNSHSLFVYRKPIP,not soluble
6,MKFVVASYGTRGDIEPCAAVGLELQRRGHDVCLAVPPNLIGFVETAGLSAVAYGSRDSQEQLDEQFLHNAWKLQNPIKLLREAMAPVTEGWAELSAMLTPVAAGADLLLTGQIYQEVVANVAEHHGIPLAALHFYPVRANGEIAFPARLPAPLVRSTITAIDWLYWRMTKGVEDAQRRELGLPKASTPAPRRMAVRGSLEIQAYDALCFPGLAAEWGGRRPFVGALTMESATDADDEVASWIAADTPPIYFGFGSMPIGSLADRVAMISAACAELGERALICSGPSDATGIPQFDHVKVVRVVSHAAVFPTCRAVVHHGGAGTTAAGLRAGIPTLILWVTSDQPIWAAQIKQLKVGRGRRFSSATKESLIADLRTILAPDYVTRAREIASRMTKPAASVTATADLLEDAARRAR,not soluble
7,GMQTINATEIRNNFSYYIDTVVRDKPIAVKRNRDVLLFFSEQIIKDLLQDLKIHAELSKEDGIIIGTIDGFDLVVSGESEQEVIQKLAEDLLEYAQDYMNDFKLFYNAPNRKTHYPYILKVLLSSNIDEVKGYIYAEMV,soluble
8,MGSDKIHHHHHHKIKQTAGRDQLGTFAPKFAELNDDILFGEVWSRTEQLGLRDRSLVTITSLISQGITDSSLTFHLQSAKNNGITRTEIAEIITHIGFYAGWPKAWAAFRLAKEVWNEDISCKDKDEKTTFQREMIFPIGEPNTAYAQYFTGNSYLAPISREQASISNVTFEPRCRNNWHIHHATQGGGQMLIGIAGRGWYQEEGKAAVEILPGTVIHIPANVKHWHGAAANSWFAHLAFELSGENTSNEWLEPVTDEEYDKIQMLP,not soluble
9,MVDNVLAILRMGDELADLAVDLFDGVTDPTGIAPATTRIVARAEELLSARGNGRDDIRIACGPGCMTCCTVNVSVLVPEAWTIAVWLRQHHDAGEVDRLAVRLTAAARAIRWLDDADRIRSGVTCPFLDERGWCSIHPVRPLMCRALTSTDPAQCRRALESRTSDEEVPLECNLLQKYLMEQAYRSLAAALERRGIDSAGRELVGTVARFLNEPWLADKFLVGRLITLPESLEHHHHHH,not soluble
10,LKKKVGIISLGCPKNLVDSEIMLGLLKKNDFEITSDSEEANVIIVNTCGFIESAKEESINTILEMANYKNKNCEMLIVAGCLAQRYKDEIIKEMPEVDAVVGVSGYDEIAKVIEEFYSKKNDKNDKEKAVFHKDTLSVEYLNNERLLSTNSGYAYLKISEGCDNRCTYCAIPYIRGPYRSRKMEDIISEAEFLAGKGVKEVILVAQDVTVYGKDLYGQKKLVELVREVSGIEGIEWIRLLYTYPEEIDEELIKEIANNEKVVKYLDIPIQHASDKILKLMGRRSTSEGIRNILDRLRAEVPDIVLRTSLIVGFPGEDEKDFKILYDFVRKYEFDRLGVFTYSREEGTPAYDLKPQIKKSVKESRRNDIMQLQKEIVQRKNESRLEKVYKTLVEGVSEDGIFYYGRTYAEAPDIDGSVYFTSAEPLKFGEFVNVKVLNIDDYDLIGEVINESSK,soluble
11,MQLNKVLKGLMLALPVLAVAACSSNKSANNDQSGMGAGTGTENGSNLSSEEQARLQMQELQKNNIVYFGFDKYDIGSDFAQMLDAHAAFLRSNPSDKVVVEGHADERGTPEYNIALGERRASAVKMYLQGKGVSADQISIVSYGKEKPAVLGHDEAAFAKNRRAVLVY,not soluble
12,MARKTKQQALETRQHILDVALRLFSQQGVSATSLAEIANAAGVTRGAIYWHFKNKSDLFSEIWELSESNIGELEIEYQAKFPDDPLSVLREILVHILEATVTEERRRLLMEIIFHKCEFVGEMVVVQQAQRSLCLESYDRIEQTLKHCINAKMLPENLLTRRAAILMRSFISGLMENWLFAPQSFDLKKEARAYVTILLEMYQLCPTLRASTVNGSP,not soluble
13,MGHHHHHHSHMDALSPSPAIPSNTDYPGPHSFDVSFQQSSTAKSATWTYSTELKKLYCQIAKTCPIQIKVMTPPPQGAVIRAMPVYKKAEHVTEVVKRCPNHELSREFNEGQIAPPSHLIRVEGNSHAQYVEDPITGRQSVLVPYEPPQVGTEFTTVLYNFMCNSSCVGGMNRRPILIIVTLETRDGQVLGRRCFEARICACPGRDRKADEDSIRKQQVSDSTKNGDGTKRPFRQNTHGIQM,not soluble
14,MGSDKIHHHHHHMSGKLTVITGPMYSGKTTELLSFVEIYKLGKKKVAVFKPKIDSRYHSTMIVSHSGNGVEAHVIERPEEMRKYIEEDTRGVFIDEVQFFNPSLFEVVKDLLDRGIDVFCAGLDLTHKQNPFETTALLLSLADTVIKKKAVCHRCGEYNATLTLKVAGGEEEIDVGGQEKYIAVCRDCYNTLKKRV,not soluble
15,PKKPPMNGYQKFSQELLSNGELNHLPLKERMVEIGSRWQRISQSQKEHYKKLAEEQQRQYKVHLDLWVKSLSPQDRAAYKEYISNKRK,soluble
16,MVMFMVFRILGRMTKIEKEIKEEEAKYDLIIKNEAKIEPIVAEEDMEFKQGDIKPIRIKKIKIPPMSVLLICPYGRHRVGHVVAVGEEVPMPIDVEREVDMAMFACGFEGEVKKGDLIGMLLILAAEKRELEHHHHHH,not soluble
17,MSSGKVIVYGGKGALGSAILEFFKKNGYTVLNIDLSANDQADSNILVDGNKNWTEQEQSILEQTASSLQGSQVDGVFCVAGGWAGGSASSKDFVKNADLMIKQSVWSSAIAAKLATTHLKPGGLLQLTGAAAAMGPTPSMIGYGMAKAAVHHLTSSLAAKDSGLPDNSAVLTIMPVTLDTPMNRKWMPNADHSSWTPLSFISEHLLKWTTETSSRPSSGALLKITTENGTSTITPQ,soluble
18,MCIHTIPYYSAKRRRIMDNQFFKNIEKKTGVKMQDVMNLAGSLQNANFKDENTVRSVINRVAQMANRRVPKELEDKIVESITSGKEKLDFGTISKMMDNKLEHHHHHH,not soluble
19,MGSDKIHHHHHHMINTKEDFLLLIKQIEQKSGYKKPKAFGIARLDRGQLNKNKILQASFALINYEQNFGSAAIMLEAFMQRGVEIDFNASEFVQTLKLEDIDFALSCFKPFLEEDGHQNIDLLKIIKDKFKDDEFSFVCLFEDKEPLSVESIYLKLYLLSTKKVPLRSINLNGAFGLLSNVAWSDDKPIELEYLRANEMRLKMSNQYPKIDFVDKFPRFLAHIIPEDNTRILESSKVRMGASLAAGTTIMPGASYVNFNAGTTGACMVEGRISSSAIVGEGSDVGGGASILGVLSGTSGNAISVGKACLLGANSVTGIPLGDNCIVDAGIAVLEGTKFLLKDAEELAKLNPYFNFDKEIYKGLELKGLNGLHFRQDSISGAMIVALNKKAVKLNEALH,not soluble
20,MSLTTSKTRKSGVAMTEKLELDPARTAIVLIEYQNEFTSDGGVLHGAVADVMQHTGMLANTVAVVDAARQAGVPIMHAPITFAEGYGELTRHPYGILKGVVDGKAFVKGTWGAAIVDELAPVNGDIVIEGKRGLDTFASTNLDFILRSKGVDTIVLGGFLTNCCVESTMRTGYERGFRVITLTDCVAATSQEEHNNAISYDFPMFSVPMTSADVIAALEGHHHHHH,soluble
21,VGTIDQLVKRVIEGSLSPKERTLLKEDPAYWFLSDENSLEYKYYKLKLAEMQR,soluble
22,MGGLYVSNFYGIFYSSNSESSTTLVDFCKYNAEIVEQTIFLEFVEFSNESIIFLKNLYSKMVNNSNFNIKKKFFHRKNSVTVYSNFLNFSKNLVKKFGV,not soluble
23,MTAKQFRHGGENLAVRYALADCELGRCLVAESERGICAILLGDDDATLISELQQMFPAADNAPADLMFQQHVREVIASLNQRDTPLTLPLDIRGTAFQQQVWQALRTIPCGETVSYQQLANAIGKPKAVRAVASACAANKLAIVIPCHRVVRGDGSLSGYRWGVSRKAQLLRREAENEER,soluble
24,MSLKKQPGFTQDYLLSKATTLPDKTRLERAVEPLCARHPGECGILALDNSLDAFAARYRLTEMAARTLDVQYYIWEDDMSGRLLFSVLLSAAKRGVHVRLLLDDNNTPGLDDTLRLLDSHPNIEVRLFNPFSFRTLRALGYLTDFARLNRRMHNKSYTADGVVTLVGGRNIGDAYFGAGEEPLFSDLDVMAIGPVVNDVANDFERYWRCSSVSTLQQVLSLSEQELTQRIELPESWYNDEITRRYLHKLETSQFMADLDCGTLPLIWAKTRLLSDDPSKGEGKAQRHSLLPQRLFDVMGSPTERIDIISAYFVPTRAGVAQLLNLVRKGVKIAILTNSLAANDVAVVHAGYARWRKKLLRYGVELYELKPTREHETAVHDRGLTGNSGSSLHAKTFSIDGSKVFIGSLNFDPRSTLLNTEMGFVIESETLATLIHKRFTQSQRDAAWQLRLDRWGRINWIDRQQEEEKVLKKEPATRFWQRVLVRLAAILPVEWLLEGHHHHHH,soluble
25,MAHHHHHHMWTAPPSLRTVRPIFLPLNVVANSTSSLLLHPGQLDLKHVEGYMTSKKWLSKLKCCGDNPLTVDEMKALVLMFLKKISDTYVDDQAKWMNKMRSSQEEQGKALEEAMNEYEKNILFNHALKEQQLLHNNKKISEWNETIENAYEAQQEVLRQFEAKKREDKKKMALEKNNELIIAKDYIDKIKEAATDSRYANSKCFVYPASSAPCGACTSAGAIAPYRRFKEPRRKKQYSLCL,not soluble
